# Measured values published in patent US20210301012A1 (UCB, published 2021).
# B1: gp80 (receptor, human, UniProt P08887 20-358, looked up)
# chain: LAPRRCPAQEVARGVLTSLPGDSVTLTCPGVEPEDNATVHWVLRKPAAGSHPSRWAGMGRRLLLRSVQLHDSGNYSCYRAGRPAGTVHLLVDVPPEEPQLSCFRKSPLSNVVCEWGPRSTPSLTTKAVLLVRKFQNSPAEDFQEPCQYSQESQKFSCQLAVPEGDSSFYIVSMCVASSVGSKFSKTQTFQGCGILQPDPPANITVTAVARNPRWLSVTWQDPHSWNSSFYRLRFELRYRAERSKTFTTWMVKDLQHHCVIHDAWSGLRHVVQLRAQEEFGQGEWSEWSPEAMGTPWTESRSPPAENEVSTPMQALTTNKDDDNILFRDSANATSLPVQD
# notes: Soluble gp80 as used in ELISA, MST, Octet, SEC and SPR; In part of the ELISA work the methods name gp80-hscFc (gp80 M1-P322, C211A, C277A, fused to single chain human IgG Fc); also called IL-6 receptor; CD126
# Columns and labels:
# IL-6 [1] = target: T1, IL-6 (human, UniProt P05231 28-212); experiment: SPR, IL-6 immobilised, gp80 injected, with VHH6 against without VHH6
# T1 construct: IL-6 as used in ELISA, MST, Octet, SEC and SPR; also called interleukin-6; hIL-6
# Excerpt: For brevity, FIGS. 10a and b only report the SPR sensorgrams for IL-6 immobilization.
# IL-6-gp80 complex [2] = target: T2, IL-6-gp80 complex (human, UniProt P05231 28-212; P08887 20-358); experiment: MicroScale Thermophoresis, VHH6 titrated into IL-6-NT647 + gp80 (panel IL-6-NT647+gp80+VHH6)
# T2 construct: Non-covalent transient heterodimer formed by mixing IL-6 and gp80
# Excerpt: (§1) (a) ELISA: FusionIL-6, IL-6 or gp80 were immobilized overnight on plates. […] (b) MicroScale Thermophoresis (MST): IL-6 and gp80 were labelled with NT647.
# gp80 = target: B1; experiment: ELISA, plate coated with gp80, absorbance 630 nm
# IL-6-gp80 complex [3] = target: T2, IL-6-gp80 complex; experiment: SPR (BIAcore T200, 25 C), VHH6 immobilised, IL-6 titrated (0-250 nM) with gp80 constant at 2 uM
# Procedure: (§2) Quantitative SPR analysis was carried out using a BIAcore T200 (GE Healthcare). The binding measurements were performed at a flow rate of 100 μl/min. The protein of interest was injected for 180 s and the dissociation was monitored for 360 s. […] The sensor surface was regenerated with […] MgCl₂. Background subtraction binding curves were analyzed using the T200 evaluation software (version 1.0) following standard procedures. Due to the complexity of the interactions studied, the data analysis was limited to the most informative, in this case kd parameter, which was determined by fitting a single exponential decay model to dissociation data within 360 s range.
# IL-6-gp80 complex [4] = target: T2, IL-6-gp80 complex; experiment: SPR (BIAcore T200, 25 C), VHH6 immobilised, gp80 titrated (0-250 nM) with IL-6 constant at 2 uM
# Procedure: as §2
# IL-6 [5] = target: T1, IL-6; experiment: ELISA, plate coated with IL-6, absorbance 630 nm
# Procedure: ELISA—IL-6, gp80 and FusionIL-6 used in ELISA to coat plates were diluted to a final concentration of […] in carbonate buffer (0.16% Na₂CO₃ and 0.3% NaHCO₃ in H₂O). Coated plates were incubated at 4° C. overnight. The following day, the plates were washed twice in PBST, blocked in PBS/5% BSA for 2 h at RT, and again washed twice in PBST. For preliminary screening, either supernatant from HEK cells or purified VHHs was added. Anti-llama-HRP or anti-His-HRP antibody was added for 1 h at RT. Afterwards the plates were washed twice with PBST and developed with TMB substrate. The reaction was stopped by adding NaF. […]
# IL-6-gp80 complex [6] = target: T2, IL-6-gp80 complex; experiment: SPR (BIAcore 3000), His-tagged VHH captured from supernatant on Ni-NTA chip, equimolar IL-6 + gp80 (50 nM each) injected
# Procedure: (§3) SPR analysis was performed using a BIAcore 3000 (GE Healthcare). […] An equimolar mixture of IL-6 and gp80 (50 nM each) was injected for 300 s at a flow rate of 10 μl/min followed by a dissociation phase of 300 s. At the end of each cycle the chip surface was regenerated by injection of 350 mM EDTA (2×10 μl).
# (§4) To assess the contributions of the side chains to binding, single alanine substitutions at positions 27, 32, 74, 101 and 113, and double alanine substitutions at positions 27/32, 74/101 and 113/101 were generated. […] In a three-component system, it is not possible to calculate meaningful association rate constants. However, the dissociation rate constants, being concentration independent, were determined.
# IL-6-gp80 complex [7] = target: T2, IL-6-gp80 complex; experiment: as above; remark: listed apart in the source
# Procedure: as §3, §4
# IL-6-gp80 complex [8] = target: T2, IL-6-gp80 complex; experiment: MicroScale Thermophoresis, VHH6 titrated into gp80-NT647 + IL-6 (panel gp80-NT647+IL-6+VHH6)
# Excerpt: as §1
# IL-6-gp80 complex [9] = target: T2, IL-6-gp80 complex; experiment: SPR, VHH captured on Ni-NTA chip, IL-6 + gp80 injected; reference VHH6
# Procedure: as §3, §4
koff (IL-6-gp80 complex [6]) [s⁻¹],koff (IL-6-gp80 complex [7]) [s⁻¹],Binder,further results
–,–,B1,fold reduction of koff by VHH6 (IL-6 [1]): 225 fold
0.00036,0.00036,"VHH6 (VHH, Camel single domain antibody expressed in Expi-HEK cells; The His tag was used for capture in Octet and in the NTA-chip SPR; also called wtVHH6; VHH6-6His; not shown: C-terminal TEV site and 6His tag (VHH6-6His)) VHH: DVQFVESGGGSVHAGGSLRLNCATSGYIYSTYCMGWFRQAPGKEREGVAHIYTNSGRTYYADSVKGRFTISQDNAKNTVYLQMNSLKPEDTAIYYCAARPSIRCASFSATEYKDWGQGTQVTVSS",EC50 (read off the curve) (IL-6-gp80 complex [2]): ~30 nM; binding result (gp80): no binding; koff (IL-6-gp80 complex [3]): 0.000309 s⁻¹; koff (IL-6-gp80 complex [4]): 0.000375 s⁻¹; binding result (IL-6 [5]): no binding; EC50 (read off the curve) (IL-6-gp80 complex [8]): ~60 nM
0.00143,–,"VHH6 K113A S101A (VHH, Tested as ExpiHEK supernatant; also called Ser101Ala/Lys113Ala; 113/101 double mutant; not shown: C-terminal His tag (captured on NTA chip)) VHH: DVQFVESGGGSVHAGGSLRLNCATSGYIYSTYCMGWFRQAPGKEREGVAHIYTNSGRTYYADSVKGRFTISQDNAKNTVYLQMNSLKPEDTAIYYCAARPAIRCASFSATEYADWGQGTQVTVSS",fold increase of dissociation rate against VHH6 (IL-6-gp80 complex [9]): 4.3 fold
0.00135,–,"VHH6 N74A S101A (VHH, Tested as ExpiHEK supernatant; also called Asn74Ala/Ser101Ala; 74/101 double mutant; not shown: C-terminal His tag (captured on NTA chip)) VHH: DVQFVESGGGSVHAGGSLRLNCATSGYIYSTYCMGWFRQAPGKEREGVAHIYTNSGRTYYADSVKGRFTISQDAAKNTVYLQMNSLKPEDTAIYYCAARPAIRCASFSATEYKDWGQGTQVTVSS",fold increase of dissociation rate against VHH6 (IL-6-gp80 complex [9]): 3.8 fold
–,0.0007,"VHH6 Y27A (VHH, Tested as ExpiHEK supernatant; not shown: C-terminal His tag (captured on NTA chip)) VHH: DVQFVESGGGSVHAGGSLRLNCATSGAIYSTYCMGWFRQAPGKEREGVAHIYTNSGRTYYADSVKGRFTISQDNAKNTVYLQMNSLKPEDTAIYYCAARPSIRCASFSATEYKDWGQGTQVTVSS",fold increase of dissociation rate against VHH6 (IL-6-gp80 complex [9]): 1.9 fold
–,0.0003,"VHH6 Y32A (VHH, Tested as ExpiHEK supernatant; not shown: C-terminal His tag (captured on NTA chip)) VHH: DVQFVESGGGSVHAGGSLRLNCATSGYIYSTACMGWFRQAPGKEREGVAHIYTNSGRTYYADSVKGRFTISQDNAKNTVYLQMNSLKPEDTAIYYCAARPSIRCASFSATEYKDWGQGTQVTVSS",–
–,0.00026,"VHH6 K113A (VHH, Tested as ExpiHEK supernatant; not shown: C-terminal His tag (captured on NTA chip)) VHH: DVQFVESGGGSVHAGGSLRLNCATSGYIYSTYCMGWFRQAPGKEREGVAHIYTNSGRTYYADSVKGRFTISQDNAKNTVYLQMNSLKPEDTAIYYCAARPSIRCASFSATEYADWGQGTQVTVSS",–
0.00164,–,"VHH6 K113S S101A (VHH, The text describes only alanine substitutions; not shown: C-terminal His tag (captured on NTA chip)) VHH: DVQFVESGGGSVHAGGSLRLNCATSGYIYSTYCMGWFRQAPGKEREGVAHIYTNSGRTYYADSVKGRFTISQDNAKNTVYLQMNSLKPEDTAIYYCAARPAIRCASFSATEYSDWGQGTQVTVSS",–
–,0.00015,"VHH6 N74A (VHH, Tested as ExpiHEK supernatant; not shown: C-terminal His tag (captured on NTA chip)) VHH: DVQFVESGGGSVHAGGSLRLNCATSGYIYSTYCMGWFRQAPGKEREGVAHIYTNSGRTYYADSVKGRFTISQDAAKNTVYLQMNSLKPEDTAIYYCAARPSIRCASFSATEYKDWGQGTQVTVSS",–
0.00043,–,"VHH6 Y27A Y32A (VHH, Tested as ExpiHEK supernatant; also called 27/32 double mutant; not shown: C-terminal His tag (captured on NTA chip)) VHH: DVQFVESGGGSVHAGGSLRLNCATSGAIYSTACMGWFRQAPGKEREGVAHIYTNSGRTYYADSVKGRFTISQDNAKNTVYLQMNSLKPEDTAIYYCAARPSIRCASFSATEYKDWGQGTQVTVSS",–
–,0.00039,"VHH6 S101A (VHH, Tested as ExpiHEK supernatant; not shown: C-terminal His tag (captured on NTA chip)) VHH: DVQFVESGGGSVHAGGSLRLNCATSGYIYSTYCMGWFRQAPGKEREGVAHIYTNSGRTYYADSVKGRFTISQDNAKNTVYLQMNSLKPEDTAIYYCAARPAIRCASFSATEYKDWGQGTQVTVSS",–
